In patent publication US20100279930A1 (published 2010):
Read-outs that look alike come from different tables or passages of the source.

Tests used:
Experiment in all cases: 125I-PP displacement
human Y4 receptor [1] = molecular target: T1, human Y4 receptor (human, UniProt P50391 1-375)
human Y4 receptor [2] = molecular target: T1, human Y4 receptor; remark: listed apart in the source
human Y4 receptor [3] = molecular target: T1, human Y4 receptor; remark: listed apart in the source

T1 sequence (P50391 whole entry): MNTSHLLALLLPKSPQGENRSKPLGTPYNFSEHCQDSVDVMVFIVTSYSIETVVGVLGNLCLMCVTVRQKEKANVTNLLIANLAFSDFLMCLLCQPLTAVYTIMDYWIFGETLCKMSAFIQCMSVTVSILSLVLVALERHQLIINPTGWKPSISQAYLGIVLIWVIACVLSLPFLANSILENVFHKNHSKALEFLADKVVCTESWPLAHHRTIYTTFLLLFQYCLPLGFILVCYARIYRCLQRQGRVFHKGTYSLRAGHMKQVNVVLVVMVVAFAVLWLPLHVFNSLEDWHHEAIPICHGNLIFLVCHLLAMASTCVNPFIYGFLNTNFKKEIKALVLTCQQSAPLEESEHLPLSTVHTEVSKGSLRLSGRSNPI

| Binder | IC50 (human Y4 receptor [1]) [nM] | also measured |
| --- | --- | --- |
| AAPLEPKYPGDNATPEQLAKYAAELRRYINKLTRPRY [4058166] |  | IC50 (human Y4 receptor [2]): 0.056 nM |
| PAPLEPSYPGDNATPEQMAKYAAELRRYINLLTRPRY [4058153] |  | IC50 (human Y4 receptor [2]): 0.107 nM |
| PAPLEPEYPGDNATPEQMAKYAAELRRYINLLTRPRY [4058155] |  | IC50 (human Y4 receptor [2]): 0.125 nM |
| AAPLEPKYPGDNATPEQMAKYAAELRRYINKLTRPRY [4058159] |  | IC50 (human Y4 receptor [2]): 0.106 nM |
| HAPLEPSYPGDNATPEQMAKYAAELRRYINKLTRPRY [4058150] |  | IC50 (human Y4 receptor [2]): 0.113 nM |
| HAPLEPHYPGDNATPEQMAKYAADLRRYINKLTRPRY [4057891] | 0.146 |  |
| YAPLEPEYPGDNATPEEMAKYAAELRRYINKLTRPRY [4058075] |  | IC50 (human Y4 receptor [2]): 0.058 nM |
| AAPLEPHYPGDNATPEQMAKYAADLRRYINKLTRPRF [4057746] | 0.072 |  |
| PAPLEPHYPGDNATPEQLAKYAADLRRYINKLTRPRY [4057753] | 0.07 |  |
| HAPLEPVYPGDNATPEQMAKYAADLRRYINKLTRPRY [4057879] | 0.134 |  |
| PAPLEPHYPGDNATPEEMAKYAAELRRYINKLTRPRY [4058079] |  | IC50 (human Y4 receptor [2]): 0.071 nM |
| PAPLEPTYPGDNATPEQMAKYAAELRRYINMLTRPRY [7251] |  | IC50 (human Y4 receptor [3]): 0.096 nM |
| YAPLEPSYPGDNATPEQMAKYAAELRRYINKLTRPRY [4058151] |  | IC50 (human Y4 receptor [2]): 0.058 nM |
| AAPLEPHYPGDNATPEQMAKYAAALRRYINKLTRPRY [4057755] | 0.145 |  |
| PAPLEPHYPGDNATPEQMAKYAADLRRYINKLTRPRF [4057747] | 0.066 |  |
| PAPLEPTYPGDDATPQQMAKYAAALRRYINILTRPRY [7268] |  | IC50 (human Y4 receptor [3]): 0.127 nM |
| PAPLEPSYPGDNATPEQLAHYYSELRRYINKLTRPRY [4057781] | 0.132 |  |

| Binder | IC50 (human Y4 receptor [1]) [nM] | also measured |
| --- | --- | --- |
| PAPLEPVYPGDNATPEQLARYYSELRRYINKLTRPRY [4058297] |  | IC50 (human Y4 receptor [2]): 0.043 nM |
| AAPLEPSYPGDNATPEQMAHYYSELRRYINKLTRPRY [4057777] | 0.088 |  |
| AAPLEPTYPGDNATPEQMAHYYSELRRYINKLTRPRY [4057782] | 0.078 |  |
| PAPLEIVYPGDNATPEQMARYYSELRRYINKLTRPRY [4058285] |  | IC50 (human Y4 receptor [2]): 0.21 nM |
| PAPLEPHYPGDDATPQQLAHYYSELRRYINKLTRPRY [4057789] | 0.164 |  |
| PAPLEPHYPGDNATPEQMAKYYSELRRYINKLTRPRY [4057763] | 0.174 |  |
| PLEPSYPGDNATPEQMAKYAAELRRYINLLTRPRY [4058152] |  | IC50 (human Y4 receptor [2]): 0.088 nM |
| PLEPTYPGDNATPEQMARYAAALRRYINKLTRPRY [4058067] |  | IC50 (human Y4 receptor [2]): 0.047 nM |
| PLEPHYPGDNATPEQMARYAAELRRYINKLTRPRY [4057900] | 0.09 |  |
| APLEPHYPGDNATPEQMAKYAAELRRYINKLTRPRY [4057764] | 0.094 |  |
| PAPLEPHYPGDDATPQQMARYAAELRRYINLLTRPRY [4058057] | 0.111 |  |
| PAPLEPSYPGDDATPQQMAHYYAELRRYINKLTRPRY [4057774] | 0.227 |  |
| PAPLEPTYPGDDATPQQMARYAAELRRYINFLTRPRY [7259] |  | IC50 (human Y4 receptor [3]): 0.075 nM |
| GAPLEPSYPGDNATPEQMAKYAAELRRYINKLTRPRY [4058149] |  | IC50 (human Y4 receptor [2]): 0.07 nM |
| HAPLEPHYPGDNATPEQMARYAAELRRYINKLTRPRY [4057902] | 0.064 |  |
| YAPLEPEYPGDDATPQQMARYAAELRRYINKLTRPRY [4058053] | 0.042 |  |

Continued, in another order:

| IC50 (human Y4 receptor [1]) [nM] | Binder | also measured |
| --- | --- | --- |
| 0.19 | AAPLEPHYPGDNATPEQMAKYYSALRRYINKLTRPRY [4057758] |  |
| 0.071 | AAPLEPHYPGDNATPEQLAKYAADLRRYINKLTRPRY [4057752] |  |
| 0.117 | PAPLEPVYPGDNATPEELARYAAELRRYINKLTRPRY [4057769] |  |
| 0.167 | AAPLEPHYPGDNATPEQMAKYYSELRRYINKLTRPRY [4057762] |  |
| 0.102 | AAPLEPTYPGDNATPEQLAHYYSELRRYINKLTRPRY [4057784] |  |
| 0.124 | PAPLEPHYPGDNATPEQMAKYAAALRRYINKLTRPRY [4057756] |  |
| 0.071 | AAPLEPSYPGDNATPEQLAHYYSELRRYINKLTRPRY [4057779] |  |
| 0.081 | PAPLEPVYPGDNASPEQMARYAAELRRYINKLTRPRY [4057770] |  |
| 0.085 | PAPLEPSYPGDNATPEQMAKYAAALRRYINLLTRPRY [4058052] |  |
| 0.154 | PAPLEPTYPGDNATPEQMAHYYSELRRYINKLTRPRY [4057783] |  |
| 0.134 | PAPLEPTYPGDNATPEQLAHYYSELRRYINKLTRPRY [4057785] |  |
| 0.144 | PLEPHYPGDNATPEQLAKYAADLRRYINKLTRPRY [4057893] |  |
| 0.065 | APLEPHYPGDNATPEQLAKYAADLRRYINKLTRPRY [4057751] |  |
| 0.1 | APLEPHYPGDDATPQQMARYAAELRRYINLLTRPRY [4058056] |  |
| 0.156 | APLEPHYPGDNATPEQMAKYAAALRRYINKLTRPRY [4057754] |  |
| 0.086 | APLEPHYPGDNATPEQMAKYAADLRRYINKLTRPRF [4057745] |  |
| 0.064 | GAPLEPHYPGDDATPQQMARYAAELRRYINKLTRPRY [4057899] |  |
| 0.089 | PAPLEPHYPGDNATPEQMAKYAAELRRYINKLTRPRY [4057766] |  |
| 0.137 | YAPLEPHYPGDDATPQQMARYAAELRRYINKLTRPRY [4058054] |  |
| 0.07 | PAPLEPHYPGDDATPQQMARYAAELRRYINKLTRPRY [4057897] |  |
| 0.075 | AAPLEPHYPGDNATPEQMAKYAAELRRYINKLTRPRY [4057765] |  |
| 0.155 | AAPLEPHYPGDDATPQQMAHYYSELRRYINKLTRPRY [4057788] |  |
| 0.11 | YAPLEPHYPGDDATPQQMARYAAELRRYINLLTRPRY [4058055] |  |
| 0.09 | GAPLEPHYPGDNATPEQMARYAAELRRYINKLTRPRY [4057903] |  |
| 0.063 | PLEPHYPGDDATPQQMARYAAELRRYINKLTRPRY [4057898] |  |
